Laboratory results: the supplement of paper PMC10567573

B1: RSPH3 (parent)
chain: LELQRQREARKRALARKQAQEQLR

Variants of: B1
Assay: protein stability index of a GFP-peptide fusion (GPS, HEK-293T) (PSI 1-6); higher = more stable
Conditions: c terminus: a fixed tail appended
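Further: lentivirally expressed fusions sorted by FACS into six bins by GFP to DsRed ratio, PSI derived from sequencing read proportions per bin multiplied by bin number.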

First: LELHRQREARKRALARKQAQEQLR [Q4H]
Second: LELYRQREARKRALARKQAQEQLR [Q4Y]
The protein stability index of the first is higher: 4.2 for the first, 3.03 for the second.

Going from LELNRQREARKRALARKQAQEQLR [Q4N] to LELPRQREARKRALARKQAQEQLR [Q4P], the protein stability index falls from 3.76 to 3.51.

First: LELIRQREARKRALARKQAQEQLR [Q4I]
Second: LELKRQREARKRALARKQAQEQLR [Q4K]
The protein stability index of the first is lower: 2.95 for the first, 3.55 for the second.

Going from LELERQREARKRALARKQAQEQLR [Q4E] to LELLRQREARKRALARKQAQEQLR [Q4L], the protein stability index falls from 4.3 to 3.22.

Compared with LELGRQREARKRALARKQAQEQLR [Q4G], LELVRQREARKRALARKQAQEQLR [Q4V] is higher in protein stability index: 3.41 for the first, 3.43 for the second.

Going from LELCRQREARKRALARKQAQEQLR [Q4C] to LELSRQREARKRALARKQAQEQLR [Q4S], the protein stability index rises from 3.52 to 4.27.

Compared with LELTRQREARKRALARKQAQEQLR [Q4T], LELMRQREARKRALARKQAQEQLR [Q4M] is lower in protein stability index: 4.06 for the first, 2.32 for the second.

Compared with LELWRQREARKRALARKQAQEQLR [Q4W], LELARQREARKRALARKQAQEQLR [Q4A] is lower in protein stability index: 3.43 for the first, 3.17 for the second.

First: LELDRQREARKRALARKQAQEQLR [Q4D]
Second: LELRRQREARKRALARKQAQEQLR [Q4R]
The protein stability index of the first is lower: 3.96 for the first, 4.02 for the second.

Compared with LELFRQREARKRALARKQAQEQLR [Q4F], LELQRQRECRKRALARKQAQEQLR [A9C] is higher in protein stability index: 3.12 for the first, 4.05 for the second.

Going from LELQRQREIRKRALARKQAQEQLR [A9I] to LELQRQREKRKRALARKQAQEQLR [A9K], the protein stability index rises from 3.39 to 3.68.

First: LELQRQREYRKRALARKQAQEQLR [A9Y]
Second: LELQRQREPRKRALARKQAQEQLR [A9P]
The protein stability index of the first is lower: 3.71 for the first, 4 for the second.

Going from LELQRQREERKRALARKQAQEQLR [A9E] to LELQRQREMRKRALARKQAQEQLR [A9M], the protein stability index falls from 3.85 to 3.84.

First: LELQRQREQRKRALARKQAQEQLR [A9Q]
Second: LELQRQRENRKRALARKQAQEQLR [A9N]
The protein stability index of the first is lower: 3.32 for the first, 3.45 for the second.

Compared with LELQRQREDRKRALARKQAQEQLR [A9D], LELQRQRETRKRALARKQAQEQLR [A9T] is lower in protein stability index: 3.63 for the first, 3.31 for the second.

Compared with LELQRQREVRKRALARKQAQEQLR [A9V], LELQRQREHRKRALARKQAQEQLR [A9H] is higher in protein stability index: 3.71 for the first, 4.07 for the second.

First: LELQRQRERRKRALARKQAQEQLR [A9R]
Second: LELQRQREFRKRALARKQAQEQLR [A9F]
The protein stability index of the first is higher: 4.11 for the first, 2.73 for the second.

First: LELQRQRESRKRALARKQAQEQLR [A9S]
Second: LELQRQRELRKRALARKQAQEQLR [A9L]
The protein stability index of the first is higher: 4.01 for the first, 3.47 for the second.

Compared with LELQRQREGRKRALARKQAQEQLR [A9G], LELQRQREWRKRALARKQAQEQLR [A9W] is lower in protein stability index: 4.04 for the first, 2.86 for the second.

First: TELQRQREARKRALARKQAQEQLR [L1T]
Second: RELQRQREARKRALARKQAQEQLR [L1R]
The protein stability index of the first is lower: 3.34 for the first, 4.4 for the second.

First: PELQRQREARKRALARKQAQEQLR [L1P]
Second: VELQRQREARKRALARKQAQEQLR [L1V]
The protein stability index of the first is higher: 4.45 for the first, 3.64 for the second.

First: NELQRQREARKRALARKQAQEQLR [L1N]
Second: YELQRQREARKRALARKQAQEQLR [L1Y]
The protein stability index of the first is higher: 4.27 for the first, 3.76 for the second.

First: WELQRQREARKRALARKQAQEQLR [L1W]
Second: QELQRQREARKRALARKQAQEQLR [L1Q]
The protein stability index of the first is lower: 2.71 for the first, 3.82 for the second.

Compared with SELQRQREARKRALARKQAQEQLR [L1S], LELQTQREARKRALARKQAQEQLR [R5T] is higher in protein stability index: 3.85 for the first, 4.17 for the second.

Compared with LELQGQREARKRALARKQAQEQLR [R5G], LELQYQREARKRALARKQAQEQLR [R5Y] is lower in protein stability index: 4.34 for the first, 4.19 for the second.

Compared with LELQVQREARKRALARKQAQEQLR [R5V], LELQCQREARKRALARKQAQEQLR [R5C] is lower in protein stability index: 4.36 for the first, 4.09 for the second.

Compared with LELQLQREARKRALARKQAQEQLR [R5L], LELQPQREARKRALARKQAQEQLR [R5P] is higher in protein stability index: 3.25 for the first, 3.89 for the second.

Going from LELQHQREARKRALARKQAQEQLR [R5H] to LELQNQREARKRALARKQAQEQLR [R5N], the protein stability index falls from 4.21 to 3.72.

First: LELQKQREARKRALARKQAQEQLR [R5K]
Second: LELQFQREARKRALARKQAQEQLR [R5F]
The protein stability index of the first is higher: 4.25 for the first, 3.91 for the second.

Going from LELQDQREARKRALARKQAQEQLR [R5D] to LELQIQREARKRALARKQAQEQLR [R5I], the protein stability index falls from 4.27 to 3.77.

Going from LELQSQREARKRALARKQAQEQLR [R5S] to LELQAQREARKRALARKQAQEQLR [R5A], the protein stability index rises from 4.16 to 5.05.

First: LELQWQREARKRALARKQAQEQLR [R5W]
Second: LELQEQREARKRALARKQAQEQLR [R5E]
The protein stability index of the first is higher: 4.02 for the first, 3.68 for the second.

First: LELQMQREARKRALARKQAQEQLR [R5M]
Second: LELQQQREARKRALARKQAQEQLR [R5Q]
The protein stability index of the first is lower: 4.03 for the first, 4.32 for the second.

First: LELQRQREARERALARKQAQEQLR [K11E]
Second: LELQRQREARCRALARKQAQEQLR [K11C]
The protein stability index of the first is higher: 4.35 for the first, 2.94 for the second.

First: LELQRQREARIRALARKQAQEQLR [K11I]
Second: LELQRQREARGRALARKQAQEQLR [K11G]
The protein stability index of the first is lower: 3.27 for the first, 4.44 for the second.

Going from LELQRQREARHRALARKQAQEQLR [K11H] to LELQRQREARFRALARKQAQEQLR [K11F], the protein stability index falls from 4.44 to 3.46.

First: LELQRQREARARALARKQAQEQLR [K11A]
Second: LELQRQREARDRALARKQAQEQLR [K11D]
The protein stability index of the first is lower: 3.84 for the first, 4.51 for the second.

Compared with LNLQRQREARKRALARKQAQEQLR [E2N], LKLQRQREARKRALARKQAQEQLR [E2K] is higher in protein stability index: 3.69 for the first, 4.11 for the second.

Compared with LDLQRQREARKRALARKQAQEQLR [E2D], LQLQRQREARKRALARKQAQEQLR [E2Q] is higher in protein stability index: 3.91 for the first, 3.93 for the second.

Going from LVLQRQREARKRALARKQAQEQLR [E2V] to LILQRQREARKRALARKQAQEQLR [E2I], the protein stability index falls from 2.79 to 2.34.

First: LWLQRQREARKRALARKQAQEQLR [E2W]
Second: LTLQRQREARKRALARKQAQEQLR [E2T]
The protein stability index of the first is lower: 2.59 for the first, 3.15 for the second.

First: LYLQRQREARKRALARKQAQEQLR [E2Y]
Second: LLLQRQREARKRALARKQAQEQLR [E2L]
The protein stability index of the first is lower: 2.52 for the first, 2.6 for the second.

Compared with LRLQRQREARKRALARKQAQEQLR [E2R], LMLQRQREARKRALARKQAQEQLR [E2M] is lower in protein stability index: 3.57 for the first, 2.92 for the second.

Going from LFLQRQREARKRALARKQAQEQLR [E2F] to LSLQRQREARKRALARKQAQEQLR [E2S], the protein stability index rises from 2.56 to 3.56.

First: LHLQRQREARKRALARKQAQEQLR [E2H]
Second: LALQRQREARKRALARKQAQEQLR [E2A]
The protein stability index of the first is lower: 3 for the first, 3.1 for the second.

First: LCLQRQREARKRALARKQAQEQLR [E2C]
Second: LPLQRQREARKRALARKQAQEQLR [E2P]
The protein stability index of the first is lower: 3.13 for the first, 3.58 for the second.

First: LGLQRQREARKRALARKQAQEQLR [E2G]
Second: LELQRMREARKRALARKQAQEQLR [Q6M]
The protein stability index of the first is higher: 2.95 for the first, 2.92 for the second.
